Ends that are not written are not given here.
target: T1, dipeptidyl-peptidase IV (DPP-IV) (Homo sapiens, UniProt P27487); assay: DPP-IV inhibition assay on SPOT-synthesized peptides (cleaved from cellulose membrane); assay type: biochemical; conditions: peptides cleaved from cellulose membrane, concentration not known (semi-quantitative); averages of four determinations from two experiments
T1 construct: purchased Creative BioMart (Shirley, NY, USA); host or cells: HEK293 human cells
Source text: Recombinant human dipeptidyl-peptidase IV (DPP-IV, EC 3.4.14.5, expressed in HEK293 human cells, >95% purity, activity >5500 pmoles Gly–Pro–7-amido-4-methylcoumarin/min/µg) was purchased from Creative BioMart (Shirley, NY, USA) while polyclonal goat DPP-IV antibody and polyclonal donkey anti-goat secondary antibody conjugated to horseradish peroxidase were obtained from R&D Systems (Minneapolis, MN, USA). Pierce™ ECL western blotting substrate and protein-free (TBS) blocking buffer were from Thermo Scientific (Rockford, IL, USA). Gly–Pro–p-nitroanilide (H-Gly–Pro–p-NA∙HCl) was purchased from Bachem Americas (Torrance, CA, USA). Synthesized peptides (≥95% purity) were prepared and purified by GL Biochem (Shanghai) Ltd. (Shanghai, China).
Peptide arrays of deca-peptides spanning the entire α-lactalbumin sequence with a frame shift of one amino acid between successive sequences were prepared by Kinexus Bioinformatics Corporation (Vancouver, BC, Canada). The peptides were synthesized from the C-terminal amino acid using the SPOT technology consisting of the stepwise coupling of the Fmoc-protected amino acids and cleavage of the side chain protection groups. The α-lactalbumin-derived peptides were synthesized on trioxatridecanediamine (TOTD) and β-alanine-modified Whatman 540 cellulose membranes for the binding and inhibition assays, respectively. For the inhibition assay, the peptides were synthesized in large dots (5–7 mm in diameter) and the quality of the synthesis was verified by HPLC analysis of quality controls spots included on the membranes.
In order to determine the effect of the SPOT-synthesized peptides on the activity of the DPP-IV enzyme, the peptides were first cleaved from the cellulose support by incubating the membranes with gaseous ammonia overnight. Peptide spots (5 mm in diameter) were then punched out using a single-hole punch and transferred into microcentrifuge tubes containing 150 µL of acetonitrile (50% in 100 mM Tris–HCl buffer pH 8.0). The peptide solution (50 µL) was pipetted into a 96-well microplate with 35 µL of the chromogenic substrate Gly–Pro–p-NA (0.29 mM in 100 mM Tris–HCl buffer pH 8.0). The mixture was pre-incubated for 10 min at 37 °C, whereupon 15 µL of DPP-IV (25 mU/mL) was added and the enzymatic reaction was carried out for 30 min at 37 °C. The reaction was then terminated by addition of 100 µL of 1 M sodium acetate buffer pH 4.0 and the absorbance of the released p-nitroaniline was measured at 405 nm using a Tecan Infinite® 200 Pro microplate reader (ESBE Scientific, Markham, ON, Canada). Positive and negative controls (DPP-IV activity with no inhibitor and no DPP-IV activity, respectively) were prepared using punched peptide-free cellulose spots from the same membrane used for peptide synthesis, and adding Tris-HCl buffer in place of the sample and in place of the sample and enzyme solution, respectively.
One unit of DPP-IV was defined as the concentration of enzyme that releases 1 µmol per min of p-nitroaniline from Gly–Pro–p-NA (100 µM) at 37 °C and pH 8.0.

T1 sequence (P27487 whole entry): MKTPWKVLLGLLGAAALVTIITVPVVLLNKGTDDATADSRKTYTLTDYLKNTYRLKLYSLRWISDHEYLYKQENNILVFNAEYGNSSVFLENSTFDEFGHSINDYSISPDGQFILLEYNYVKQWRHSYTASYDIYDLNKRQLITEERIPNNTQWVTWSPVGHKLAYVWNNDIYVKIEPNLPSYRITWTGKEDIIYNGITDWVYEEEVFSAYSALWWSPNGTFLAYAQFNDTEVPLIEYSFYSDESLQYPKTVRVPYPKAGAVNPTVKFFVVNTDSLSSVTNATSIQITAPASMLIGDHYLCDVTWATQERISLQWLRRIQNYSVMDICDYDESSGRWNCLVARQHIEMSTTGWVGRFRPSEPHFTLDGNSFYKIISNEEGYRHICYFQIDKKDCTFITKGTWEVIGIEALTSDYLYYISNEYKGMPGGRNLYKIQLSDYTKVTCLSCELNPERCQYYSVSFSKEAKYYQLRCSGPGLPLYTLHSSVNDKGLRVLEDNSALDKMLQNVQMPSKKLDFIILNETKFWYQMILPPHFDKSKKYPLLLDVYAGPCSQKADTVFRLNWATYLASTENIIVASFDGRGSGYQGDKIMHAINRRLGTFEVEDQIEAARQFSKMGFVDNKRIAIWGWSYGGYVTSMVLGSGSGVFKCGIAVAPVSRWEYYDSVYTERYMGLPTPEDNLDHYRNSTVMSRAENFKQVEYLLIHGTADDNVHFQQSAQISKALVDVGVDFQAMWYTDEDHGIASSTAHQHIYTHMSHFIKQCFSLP

Percent inhibition of DPP-IV activity, SPOT-synthesized deca-peptides | Substance
16% | A2: α-lactalbumin-derived deca-peptide, residues 2–11 (Table S1) (QFTKCELSQL; UniProt P00709 21-30, looked up, fragment)
20% | A3: α-lactalbumin-derived deca-peptide, residues 3–12 (Table S1) (FTKCELSQLL; UniProt P00709 22-31, looked up, fragment)
20% | A4: α-lactalbumin-derived deca-peptide, residues 4–13 (Table S1) (TKCELSQLLK; UniProt P00709 23-32, looked up, fragment)
17% | A5: α-lactalbumin-derived deca-peptide, residues 5–14 (Table S1) (KCEVFRELKD; UniProt P00711 24-33, looked up, fragment)
16% | A6: α-lactalbumin-derived deca-peptide, residues 6–15 (Table S1) (CEVFRELKDL; UniProt P00711 25-34, looked up, fragment)
18% | A7: α-lactalbumin-derived deca-peptide, residues 7–16 (Table S1) (EVFRELKDLK; UniProt P00711 26-35, looked up, fragment)
17% | A9: α-lactalbumin-derived deca-peptide, residues 9–18 (Table S1) (FRELKDLKGY; UniProt P00711 28-37, looked up, fragment)
21% | AHKALCSEKL [J7]
11% | AIVQNNDSTE [D7]
21% | ALCSEKLDQW [J10]
11% | B1: α-lactalbumin-derived deca-peptide, residues 12–21 (Table S1) (LKDLKGYGGV; UniProt P00711 31-40, looked up, fragment)
11% | B2: α-lactalbumin-derived deca-peptide, residues 13–22 (Table S1) (KDLKGYGGVS; UniProt P00711 32-41, looked up, fragment)
13% | B3: α-lactalbumin-derived deca-peptide, residues 14–23 (Table S1) (DIDGYGGIAL; UniProt P00709 33-42, looked up, fragment)
13% | B4: α-lactalbumin-derived deca-peptide, residues 15–24 (Table S1) (LKGYGGVSLP; UniProt P00711 34-43, looked up, fragment)
11% | B5: α-lactalbumin-derived deca-peptide, residues 16–25 (Table S1) (KGYGGVSLPE; UniProt P00711 35-44, looked up, fragment)
15% | B7: α-lactalbumin-derived deca-peptide, residues 18–27 (Table S1) (YGGVSLPEWV; UniProt P00711 37-46, looked up, fragment)
15% | B8: α-lactalbumin-derived deca-peptide, residues 19–28 (Table S1) (GGVSLPEWVC; UniProt P00711 38-47, looked up, fragment)
15% | B9: α-lactalbumin-derived deca-peptide, residues 20–29 (Table S1) (GVSLPEWVCT; UniProt P00711 39-48, looked up, fragment)
14% | C2: α-lactalbumin-derived deca-peptide, residues 24–33 (Table S1) (PEWVCTTFHT; UniProt P00711 43-52, looked up, fragment)
18% | C3: α-lactalbumin-derived deca-peptide, residues 25–34 (Table S1) (ELICTMFHTS; UniProt P00709 44-53, looked up, fragment)
26% | C4: α-lactalbumin-derived deca-peptide, residues 26–35 (Table S1) (WVCTTFHTSG; UniProt P00711 45-54, looked up, fragment)

Percent inhibition of DPP-IV activity, SPOT-synthesized deca-peptides | Substance
16% | C5: α-lactalbumin-derived deca-peptide, residues 27–36 (Table S1) (ICTMFHTSGY; UniProt P00709 46-55, looked up, fragment)
10% | C6: α-lactalbumin-derived deca-peptide, residues 28–37 (Table S1) (CTTFHTSGYD; UniProt P00711 47-56, looked up, fragment)
5% | C7: α-lactalbumin-derived deca-peptide, residues 29–38 (Table S1) (TTFHTSGYDT; UniProt P00711 48-57, looked up, fragment)
13% | C8: α-lactalbumin-derived deca-peptide, residues 30–39 (Table S1) (TFHTSGYDTQ; UniProt P00711 49-58, looked up, fragment)
22% | CDKFLDDDLT [G11]
22% | CSEKLDQWLC [K1]
11% | D1: α-lactalbumin-derived deca-peptide, residues 34–43 (Table S1) (SGYDTQAIVE; UniProt P00709 53-62, looked up, fragment)
9% | D2: α-lactalbumin-derived deca-peptide, residues 35–44 (Table S1) (GYDTQAIVQN; UniProt P00711 54-63, looked up, fragment)
11% | D3: α-lactalbumin-derived deca-peptide, residues 36–45 (Table S1) (YDTQAIVENN; UniProt P00709 55-64, looked up, fragment)
14% | D5: α-lactalbumin-derived deca-peptide, residues 38–47 (Table S1) (TQAIVQNNDS; UniProt P00711 57-66, looked up, fragment)
14% | D6: α-lactalbumin-derived deca-peptide, residues 39–48 (Table S1) (QAIVQNNDST; UniProt P00711 58-67, looked up, fragment)
15% | DDQNPHSSNI [F8]
15% | DQNPHSSNIC [F9]
14% | DSTEYGLFQI [E2]
24% | EKLDQWLCEK [K3]
8% | ELKDLKGYGG [A11]
10% | EYGLFQINNK [E5]
20% | FQINNKIWCK [E9]
11% | G1: α-lactalbumin-derived deca-peptide, residues 67–76 (Table S1) (PHSSNICNIS; UniProt P00711 86-95, looked up, fragment)
9% | G2: α-lactalbumin-derived deca-peptide, residues 68–77 (Table S1) (HSSNICNISC; UniProt P00711 87-96, looked up, fragment)
16% | G3: α-lactalbumin-derived deca-peptide, residues 69–78 (Table S1) (SSNICNISCD; UniProt P00711 88-97, looked up, fragment)

Reference: article PMC4264199, “Peptide Array on Cellulose Support—A Screening Tool to Identify Peptides with Dipeptidyl-Peptidase IV Inhibitory Activity within the Sequence of α-Lactalbumin” (International Journal of Molecular Sciences, 2014)
